Reference: patent publication US5837813
Several values for one entry are separate records, joined by “and”; a condition that tells them apart may be missing. Identical values can stand only once.

Legend:
[1] = target: human fibronectin (human) (UniProt P02751); experiment: Scatchard analysis (LIGAND) of 125I-fibronectin binding to coated fibronectin competed by unlabeled fibronectin; low affinity site
[2] = target: human fibronectin (human) (UniProt P02751); experiment: Scatchard analysis (LIGAND), fibronectin on coated fibronectin
[3] = target: human fibronectin (human) (UniProt P02751); experiment: Scatchard analysis (LIGAND) of 125I-fibronectin binding to coated fibronectin competed by unlabeled fibronectin

With human fibronectin (from UniProt P02751) the Kd [1] was 800 nM, the binding sites per 1000 fibronectin dimers, high affinity site (sites per 1000 fibronectin dimers) [2] was 1 and 2 and the binding sites per fibronectin dimer, low affinity site (sites per fibronectin dimer) [2] was 1 and 2. The Kd [3] was 8 nM.
